Four molecules from patent publication US20210309759A1 (SUNSHINE GUOJIAN PHARMACEUTICAL SHANGHAI, published 2021) can be followed below.

Assay [1] addresses T1, HER2 on tumor cells with high HER2 expression (breast cancer cells BT474; SKBR3) (human, UniProt P04626 23-1255).
T1 construct: whole, on cells; Endogenous full-length receptor on human tumor cell lines; also called breast cancer cells BT474 (with high HER2 expression on the cell surface); HER2 in BT474 and SKBR3 cells
Put plainly: FACS on BT474 cells.

Assay [2] concerns the target T2, HER2-ECD protein of cynomolgus monkey (cynomolgus monkey, UniProt A0A2K5WUT7 1-622).
T2 construct: extracellular domain; Bought; also called Cyno-HER2-ECD
Put plainly: ELISA, Cyno-HER2-ECD coated at 0.2 µg/well. Background: An ELISA detects its analyte on a solid surface through an enzyme-linked reagent.

Assay [3] has as its target T3, human HER2-ECD protein (1 to 652 amino acids of NP_004439.2, 6xHis tag at the C-terminus) (human, UniProt P04626 23-652).
T3 construct: Homemade, expressed in CHO cells from HER2-ECD-His-pTT5; also called HER2-ECD-His; HER2-ECD-fl(1-652)
Kind of assay: ELISA on coated protein labelled HER2 on the sheet (taken as the human HER2-ECD of paragraph 112), positive control of the selectivity assay of Example 7.

Assay [4] has as its target T3, human HER2-ECD protein (1 to 652 amino …). Kind of assay: Biacore, antibody captured on Protein A chip, HER2-ECD as analyte. For orientation: In SPR one partner is held on a chip, and binding of the other changes the refractive index at the surface.
Assay [5] addresses T4, human HER3 protein (human, UniProt P21860 20-643).
T4 construct: Bought
Kind of assay: ELISA, antigen coated at 0.2 µg/well.

Assay [6] addresses T5, human HER1 protein (human, UniProt P00533 25-645).
T5 construct: Bought
Kind of assay: ELISA, antigen coated at 0.2 µg/well.

Assay [7] concerns the target T6, human HER4 protein (human, UniProt Q15303 26-649, limits assumed).
T6 construct: Bought
T6 sequence (looked up): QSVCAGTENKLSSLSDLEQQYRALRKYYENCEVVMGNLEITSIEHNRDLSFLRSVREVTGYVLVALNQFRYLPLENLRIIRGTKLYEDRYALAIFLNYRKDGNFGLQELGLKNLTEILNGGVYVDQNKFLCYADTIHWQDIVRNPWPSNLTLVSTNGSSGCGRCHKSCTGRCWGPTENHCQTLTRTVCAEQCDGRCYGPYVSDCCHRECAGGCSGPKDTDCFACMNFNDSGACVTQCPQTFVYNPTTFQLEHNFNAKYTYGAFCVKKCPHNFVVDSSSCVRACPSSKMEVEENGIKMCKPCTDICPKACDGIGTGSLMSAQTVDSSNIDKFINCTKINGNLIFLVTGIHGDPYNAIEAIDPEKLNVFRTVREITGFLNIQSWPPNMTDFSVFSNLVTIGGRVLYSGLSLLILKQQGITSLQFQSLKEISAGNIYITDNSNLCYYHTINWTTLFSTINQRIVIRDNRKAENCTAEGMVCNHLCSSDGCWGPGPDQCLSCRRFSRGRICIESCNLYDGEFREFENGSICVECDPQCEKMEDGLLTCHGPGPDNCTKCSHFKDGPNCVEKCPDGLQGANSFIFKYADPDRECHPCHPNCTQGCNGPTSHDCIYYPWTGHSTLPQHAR
Kind of assay: ELISA, antigen coated at 0.2 µg/well.

The target in assay [8] is T7, HER2-ECD protein of rat (rat, UniProt P06494 23-654).
T7 construct: extracellular domain; Bought; also called Rat-HER2-ECD
Kind of assay: ELISA, antigen coated at 0.2 µg/well.

The target in assay [9] is T3, human HER2-ECD protein (1 to 652 amino …). Kind of assay: ELISA on coated human HER2-ECD; humanized 19H6-Hu.
The target is the same in assay [10]. Put plainly: ELISA on coated human HER2-ECD; humanized 19H6-graft.
For assay [11], the target named is T8, HER2-ECD-E507A (human, UniProt P04626 23-652).
T8 construct: Site-directed mutant of HER2-ECD-His-pTT5, expressed in HEK293E
Put plainly: ELISA on coated HER2-ECD-E507A; E507A mutant.

Assay [12] has as its target T9, HER2-ECD-DI-III.
T9 construct: Truncated human HER2-ECD construct; also called HER2-ECD-DI-DIII(1-510)
T9 receptor fragment: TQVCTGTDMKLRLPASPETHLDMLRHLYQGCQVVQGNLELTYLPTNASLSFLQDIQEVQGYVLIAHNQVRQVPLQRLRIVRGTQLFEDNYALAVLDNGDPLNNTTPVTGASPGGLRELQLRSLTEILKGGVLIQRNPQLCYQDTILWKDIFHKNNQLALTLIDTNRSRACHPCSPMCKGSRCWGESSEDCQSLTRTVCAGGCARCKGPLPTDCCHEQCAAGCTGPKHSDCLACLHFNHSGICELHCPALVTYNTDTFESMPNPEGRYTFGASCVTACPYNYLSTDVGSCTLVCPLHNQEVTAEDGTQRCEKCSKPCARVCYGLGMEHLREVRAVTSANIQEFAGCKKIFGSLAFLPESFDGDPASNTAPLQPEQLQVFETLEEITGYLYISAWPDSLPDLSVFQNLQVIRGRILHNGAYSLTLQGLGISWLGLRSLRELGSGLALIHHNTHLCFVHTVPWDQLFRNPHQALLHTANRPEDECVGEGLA
Put plainly: Western blot by the method of Example 3.2 (reduced-denatured protein).

In assay [13] the target is T3, human HER2-ECD protein (1 to 652 amino …). Kind of assay: ELISA on coated human HER2-ECD.
For assay [14], the target named is T10, peptide 4-11 (E507A), bio-HTANRPEDECVGAGLA
T10 peptide: Biotin-HTANRPEDECVGAGLA
Put plainly: ELISA on alanine scan biotin peptides.

Assay [15] addresses T11, peptide 4-10 (V505A), bio-HTANRPEDECAGEGLA
T11 peptide: Biotin-HTANRPEDECAGEGLA
Put plainly: ELISA on alanine scan biotin peptides.

Assay [16] addresses T12, peptide 4-7 (D502A), bio-HTANRPEAECVGEGLA
T12 peptide: Biotin-HTANRPEAECVGEGLA
Put plainly: ELISA on alanine scan biotin peptides.

Assay [17] deals with T13, peptide 4-12 (L509A), bio-HTANRPEDECVGEGAA
T13 peptide: Biotin-HTANRPEDECVGEGAA
Kind of assay: ELISA on alanine scan biotin peptides.

In assay [18] the target is T3, human HER2-ECD protein (1 to 652 amino …). Kind of assay: competitive ELISA on coated human HER2-ECD; competitor: biotinylated 19H6 (10 ng/mL, mixed 1:1).
Assay [19] has the same target. Kind of assay: ELISA on coated HER2-ECD protein; wild-type HER2-ECD.
For assay [20], the target named is T14, peptide HA-21, bio-HQALLHTANRPEDECVGEGLA (490-510) (N-terminal biotin).
T14 peptide: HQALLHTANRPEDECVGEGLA
Put plainly: ELISA on biotin peptides of HER2-ECD DIII.

The target of assay [21] is T15, 495-510.
T15 peptide: HTANRPEDECVGEGLA
Kind of assay: peptide ELISA.

Assay [22] deals with T16, peptide 3-4, bio-RPEDECVGEGLA (499-510).
T16 peptide: Biotin-RPEDECVGEGLA
Put plainly: peptide ELISA.

Assay [23] deals with T17, peptide 4-1, bio-ATANRPEDECVGEGLA
T17 peptide: Biotin-ATANRPEDECVGEGLA
Kind of assay: peptide ELISA, alanine scan.

Assay [24] addresses T18, peptide 4-8, bio-HTANRPEDACVGEGLA
T18 peptide: Biotin-HTANRPEDACVGEGLA
Kind of assay: peptide ELISA, alanine scan.

Assay [25] concerns the target T19, peptide 4-5, bio-HTANRAEDECVGEGLA
T19 peptide: Biotin-HTANRAEDECVGEGLA
Kind of assay: peptide ELISA, alanine scan.

Assay [26] concerns the target T20, peptide 4-6, bio-HTANRPADECVGEGLA
T20 peptide: Biotin-HTANRPADECVGEGLA
Put plainly: peptide ELISA, alanine scan.

For assay [27], the target named is T21, peptide 4-3, bio-HTAARPEDECVGEGLA
T21 peptide: Biotin-HTAARPEDECVGEGLA
Kind of assay: peptide ELISA, alanine scan.

Assay [28] concerns the target T22, peptide 4-2, bio-HAANRPEDECVGEGLA
T22 peptide: Biotin-HAANRPEDECVGEGLA
Put plainly: peptide ELISA, alanine scan.

Assay [29] concerns the target T23, peptide 4-4, bio-HTANAPEDECVGEGLA
T23 peptide: Biotin-HTANAPEDECVGEGLA
Kind of assay: peptide ELISA, alanine scan.

Assay [30] concerns the target T24, peptide 4-9, bio-HTANRPEDEAVGEGLA
T24 peptide: Biotin-HTANRPEDEAVGEGLA
Put plainly: peptide ELISA, alanine scan.

The target in assay [31] is T25, HER2-ECD-D502A (human, UniProt P04626 23-652).
T25 construct: Site-directed mutant of HER2-ECD-His-pTT5, expressed in HEK293E
Kind of assay: ELISA on coated HER2-ECD-D502A; D502A mutant.

In assay [32] the target is T26, HER2-ECD-V505A (human, UniProt P04626 23-652).
T26 construct: Site-directed mutant of HER2-ECD-His-pTT5, expressed in HEK293E
Put plainly: ELISA on coated HER2-ECD-V505A (printed HER2-ECD-E505A); V505A mutant (printed E505A).

Assay [33] concerns the target T3, human HER2-ECD protein (1 to 652 amino …). Put plainly: ELISA on coated human HER2-ECD; chimeric 19H6-ch, FIG. 22 experiment.

Ends that are not written are not given here. * marks the point of attachment. Biotin = O=C1N[C@H]2[C@H](CS[C@H]2CCCCC(=O)*)N1

B1: humanized antibody 19H6-Hu (antibody, human IgG1, kappa, V domains shown)
VH: QVQLVQSGAEVKKPGASVKVSCKGSGYTFTDYAIHWVRQAPGQSLEWIGVFSIYYENINYNQKFKGRATMTVDKSTSTAYMELRSLRSDDTAVYYCARRDGGTINYWGQGTLVTVSS
VL: DVVMTQSPLSLPVTLGQPASISCRSSQSLVHSNGNTYLHWYQQRPGQSPRLLIYKVSNRFSGVPDRFSGSGSGTDFTLKISRVEAEDVGVYFCSQSTHIPWTFGQGTKVEIKR
What is called EC50 is the concentration needed to bring the measured effect to its halfway point. For orientation: EC50 (read off the curve) means the midpoint of the concentration-response curve. The term Kd denotes the equilibrium constant for the complex coming apart. One may read the koff as the rate constant with which the complex falls apart. The term kon denotes a measure of how fast the partners come together. Regarding B1, the EC50 in [1] is 1900 pM; in assay [2] it was 100 pM; in assay [9], 60 pM. Further, in assay [3], the “EC50 (read off the curve)” value is around 100 pM. In addition, the Kd in assay [4] worked out at 713 pM. In assay [4], this molecule showed a koff of 0.000111 s⁻¹. Also, the kon in assay [4] amounted to 155000 M⁻¹ s⁻¹. Besides, the binding result in assay [5], in assay [6], in [7] and in assay [8] was “no binding” throughout.

B2: humanized antibody 19H6-graft (antibody, human IgG1, kappa, V domains shown)
VH: QVQLVQSGAEVKKPGASVKVSCKASGYTFTDYAIHWVRQAPGQGLEWMGVFSIYYENINYNQKFKGRVTMTTDTSTSTAYMELRSLRSDDTAVYYCARRDGGTINYWGQGTLVTVSS
VL: DVVMTQSPLSLPVTLGQPASISCRSSQSLVHSNGNTYLHWFQQRPGQSPRRLIYKVSNRFSGVPDRFSGSGSGTDFTLKISRVEAEDVGVYYCSQSTHIPWTFGQGTKVEIKR
notes: Constant regions tied by the words 'The same constant region as that of 19H6-ch'
B2 came in with an EC50 in assay [10] of 500 pM.

B3: murine anti-human HER2 monoclonal antibody 19H6 (antibody, V domains shown)
VH: QVQLQQSGPELVRPGESVKISCKGSGYTFTDYAIHWVKQSHAKSLEWIGVFSIYYENINYNQKFKGKATMTVDKSSSTAYLDLARLTSEDSAIYYCARRDGGTINYWGQGTSVTVSS
VL: DVVMTQTPLSLPVSLGDQASISCRSSQSLVHSNGNTYLHWYLQKPGQSPKLLIYKVSNRFSGVPDRFSGSGSGTDFTLKISRVEAEDLGVYFCSQSTHIPWTFGGGTKLEIK
notes: Hybridoma-derived mouse antibody purified on Protein G; also called murine antibody 19H6
For the molecule B3, the EC50 in assay [1] was determined as 1100 pM; in assay [11], 867 pM; in assay [13], 280 pM; in assay [19], 41 pM; in assay [31] it was 50 pM; in assay [32] it was 38 pM. Also, the binding result in assay [12] was “binds”; in [14], “no binding”; in [15], “no binding”; in assay [16] it was “no binding”; in [17], “binds”; in assay [20], “binds”. The binding result in [21], in assay [22], in assay [23], in assay [24], in assay [25] and in [26] was “binds” in each case. The binding result in assay [27], in assay [28], in assay [29] and in [30] was “binds” in each case. Also, the “IC50 (read off the curve)” value in [18] was around 1000 pM.

B4: chimeric antibody 19H6-ch (antibody, human IgG1, kappa, V domains shown)
VH: QVQLQQSGPELVRPGESVKISCKGSGYTFTDYAIHWVKQSHAKSLEWIGVFSIYYENINYNQKFKGKATMTVDKSSSTAYLDLARLTSEDSAIYYCARRDGGTINYWGQGTSVTVSS
VL: DVVMTQTPLSLPVSLGDQASISCRSSQSLVHSNGNTYLHWYLQKPGQSPKLLIYKVSNRFSGVPDRFSGSGSGTDFTLKISRVEAEDLGVYFCSQSTHIPWTFGGGTKLEIKR
notes: 19H6 variable regions spliced with human IgG1 and kappa constant regions; expressed in HEK-293E
Consider B4, for which the EC50 in assay [1] is 1500 pM; in assay [13] it was 100 pM; in assay [33], 50 pM.
